± gives the uncertainty stated by the source.
Experiment: self-splicing fitness, log relative to wild type (ln ratio); higher = more splicing; Tetrahymena group I intron in knt gene, E. coli kanamycin selection, DiMSum; sequences stand for … in CUCUCU…GGAGGGAAAAGUUAUCAGGCAUGCACCUGGUAGCUAGUCUUUAAACCAAUAGAUUGCAUCGGUUUAAAAGGCAAGACCGUCAAAUUGCGGGAAAGGGGUCAACAGCCGUUCAGUACCAAGUCUCAGGGGAAACUUUGAGAUGGCCUUGCAAAGGGUAUGGUAAUAAGCUGACGGACAUGGUCCUAACCACGCAGCCAAGUCCUAAGUCAACAGAUCUUCUGUUGAUAUGGAUGCAGUUCACAGACUAAAUGUCGGUCGGGGAAGAUGUAUUCUUCUCAUAAGAUAUAGUCGGACCUCUCCUUAAUGGGAGCUAGCGGAUGAAGUGAUGCAACACUGGAGCCGCUGGGAACUAAUUUGUAUGCGAAAGUAUAUUGAUUAGUUUUGGAGUACUCGUGGUCG
Outline: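 Colonies from six replicate transformations of E. coli BL21(DE3) were pooled and amplicon-sequenced on an Illumina HiSeq 2500. The library placed an intron with all eight P1ex-region nucleotides randomised inside the knt kanamycin-resistance gene on pET-22b(+), and cells grew overnight at 37°C or 30°C on LB agar with or without 25 μg/mL kanamycin (plus 100 μg/mL carbenicillin, 50 μM IPTG, 0.2% rhamnose). Fitness is the DiMSum error-weighted combination of wild-type-normalised replicate fold changes, kanamycin versus none.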

Row | Sequence | self-splicing fitness (ln) (30 °C) | self-splicing fitness (ln) (37 °C)
1 | ACGAAGCAAUAUUACGAGGC | -3.62 ± 0.21 | -1.81 ± 0.16
2 | ACGAAGCAAUAUUACGAUAG | -3.09 ± 0.23 | -1.87 ± 0.21
3 | ACGAAGCAAUAUUACGAUGC | -3.28 ± 0.21 | -2.01 ± 0.37
4 | ACGAAGCAAUAUUACGCAAC | -3.3 ± 0.25 | -2.38 ± 0.39
5 | ACGAAGCAAUAUUACGCAGA | -1.42 ± 0.12 | -1.1 ± 0.14
6 | ACGAAGCAAUAUUACGCUUC | -3.44 ± 0.19 | -2.59 ± 0.2
7 | ACGAAGCAAUAUUACGGAAA | -2.38 ± 0.17 | -3.02 ± 0.21
8 | ACGAAGCAAUAUUACGGAAU | -3.14 ± 0.12 | -1.34 ± 0.1
9 | ACGAAGCAAUAUUACGGAUA | -3.55 ± 0.32 | -2.43 ± 0.23
10 | ACGAAGCAAUAUUACGGGGA | -2.81 ± 0.21 | -1.57 ± 0.16
11 | ACGAAGCAAUAUUACGGUAA | -2.49 ± 0.17 | -1.33 ± 0.14
12 | ACGAAGCAAUAUUACGGUCA | -1.35 ± 0.14 | -0.053 ± 0.13
13 | ACGAAGCAAUAUUACGUACG | -3.8 ± 0.33 | -0.988 ± 0.15
14 | ACGAAGCAAUAUUACGUCAC | -4.98 ± 0.39 | -2.43 ± 0.16
15 | ACGAAGCAAUAUUACGUCGU | -3.41 ± 0.29 | -3.5 ± 0.42
16 | ACGAAGCAAUAUUACGUGUC | -3.76 ± 0.15 | -2.7 ± 0.17
17 | ACGAAGCAAUAUUACGUUAC | -3.77 ± 0.4 | -1.17 ± 0.16
18 | ACGAAGCAAUAUUACGUUUA | -2.05 ± 0.11 | -0.875 ± 0.085
19 | ACGCAGCAAUAUUACGAAAA | -2.91 ± 0.23 | -2.7 ± 0.2
20 | ACGCAGCAAUAUUACGAAGU | -3.6 ± 0.27 | -0.721 ± 0.13
21 | ACGCAGCAAUAUUACGACAG | -1.11 ± 0.076 | -0.445 ± 0.099
22 | ACGCAGCAAUAUUACGACUU | -0.543 ± 0.077 | 0.0674 ± 0.09
23 | ACGCAGCAAUAUUACGAGUC | -4.93 ± 0.27 | -2.26 ± 0.18
24 | ACGCAGCAAUAUUACGAGUG | -2.14 ± 0.052 | -1.32 ± 0.062

Row | Sequence | self-splicing fitness (ln) (30 °C) | self-splicing fitness (ln) (37 °C)
25 | ACGCAGCAAUAUUACGAUAG | -4.2 ± 0.21 | -2.65 ± 0.19
26 | ACGCAGCAAUAUUACGCAAC | -3.91 ± 0.32 | -1.83 ± 0.18
27 | ACGCAGCAAUAUUACGCACC | -0.334 ± 0.18 | -0.22 ± 0.18
28 | ACGCAGCAAUAUUACGCAGG | – | -1.05 ± 0.15
29 | ACGCAGCAAUAUUACGCAGU | -3.29 ± 0.16 | -2.78 ± 0.21
30 | ACGCAGCAAUAUUACGCAUA | -2.18 ± 0.13 | -0.994 ± 0.12
31 | ACGCAGCAAUAUUACGCGGC | -3.37 ± 0.17 | -3.06 ± 0.25
32 | ACGCAGCAAUAUUACGCUCA | -0.563 ± 0.063 | 0.124 ± 0.088
33 | ACGCAGCAAUAUUACGCUGC | -3.38 ± 0.43 | -3.02 ± 0.29
34 | ACGCAGCAAUAUUACGGCCG | -1.66 ± 0.11 | -0.0837 ± 0.15
35 | ACGCAGCAAUAUUACGGGAG | -2.73 ± 0.11 | -1.62 ± 0.11
36 | ACGCAGCAAUAUUACGGGUC | -4.12 ± 0.21 | -2.92 ± 0.17
37 | ACGCAGCAAUAUUACGGUCA | -1.15 ± 0.069 | -0.339 ± 0.069
38 | ACGCAGCAAUAUUACGUAAA | -2.06 ± 0.12 | -1.95 ± 0.2
39 | ACGCAGCAAUAUUACGUAAU | -2.48 ± 0.083 | -2.13 ± 0.12
40 | ACGCAGCAAUAUUACGUCCG | -0.744 ± 0.085 | -0.408 ± 0.1
41 | ACGCAGCAAUAUUACGUUAG | -4.1 ± 0.16 | -2.46 ± 0.12
42 | ACGGAGCAAUAUUACGAAAU | -2.71 ± 0.22 | -1.76 ± 0.24
43 | ACGGAGCAAUAUUACGAAGA | – | -0.799 ± 0.24
44 | ACGGAGCAAUAUUACGAAUG | -3.88 ± 0.43 | -0.307 ± 0.27
45 | ACGGAGCAAUAUUACGACAC | -4.35 ± 0.42 | -1.94 ± 0.37
46 | ACGGAGCAAUAUUACGCAAG | -3.14 ± 0.27 | -1.79 ± 0.26
47 | ACGGAGCAAUAUUACGCACG | -3.77 ± 0.35 | -2.71 ± 0.37
48 | ACGGAGCAAUAUUACGCAUA | -3.27 ± 0.21 | -2.86 ± 0.22

Source: the supplement of paper PMC7877785
